Test results from patent EP4039268A1 (IMBA-Institut für Molekulare Biotechnologie GmbH, dated 2022).

B1: Clec2i CRD-mouse IgG2a-Fc fusion protein (Fc fusion)
chain: VGNKCFYFSGYPRNWTFAQAFCMAQEAQLARFDNEEELIFLKRFKGDFDCWIGLHRESSEHPWKWTNNTEYNNMNPILGVGRYAYLSSDRISSSRSYINRMWICSGGGSGGGSGGGS
B2: Atrnl1 CRD-mouse IgG2a-Fc fusion protein (Fc fusion)
chain: VGDACLRINSSRESYDNAKLYCYNLSGNLASLTTSKEVEFVLDEIQKFTQQKVSPWVGLRKINISYWGWEDMSPFTNTSLQWLPGEPNDSGFCAYLERAAVAGLKANPCTSMADGLVCEGGGSGGGSGGGS
B3: Clec5a CRD-mouse IgG2a-Fc fusion protein (Fc fusion)
chain: HQGKCFFFSFSESPWKDSMDYCATQGSTLAIVNTPEKLKYLQDIAGIENYFIGLVRQPGEKKWRWINNSVFNGNVTNQDQNFDCVTIGLTKTYDAASCEVSYRWICEGGGSGGGSGGGS
B4: Clec6a CRD-mouse IgG2a-Fc fusion protein (Fc fusion)
chain: FGSSCYLISTKENFWSTSEQNCVQMGAHLVVINTEAEQNFITQQLNESLSYFLGLSDPQGNGKWQWIDDTPFSQNVRFWHPHEPNLPEERCVSIVYWNPSKWGWNDVFCDSKHNSICEGGGSGGGSGGGS
B5: Clec7a CRD-mouse IgG2a-Fc fusion protein (Fc fusion)
chain: HGKSCYLFSFSGNSWYGSKRHCSQLGAHLLKIDNSKEFEFIESQTSSHRINAFWIGLSRNQSEGPWFWEDGSAFFPNSFQVRNTAPQESLLHNCVWIHGSEVYNQICNTSSYSICEGGGSGGGSGGGS
B6: Bcan CRD-mouse IgG2a-Fc fusion protein (Fc fusion)
chain: not shown
B7: Klrb1c CRD-mouse IgG2a-Fc fusion protein (Fc fusion)
chain: HRDKCFHVSQVSNTWEEGQADCGRKGATLLLIQDQEELRFLLDSIKEKYNSFWIGLRFTLPDMNWKWINGTTFNSDVLKITGVTENGSCASILGDKVTPESCASDNRWICQGGGSGGGSGGGS
B8: Klre1 CRD-mouse IgG2a-Fc fusion protein (Fc fusion)
chain: FRCSCYFFSKEELIWRDSQRACLSLNSSLIRMNKEEMNFFSLKSFFWVGVYYNETRRQWLWEDHSVLPSGLFSKLEANMKNFCASYKSKEAYMEENCANKLTYICKGGGSGGGSGGGS
B9: Klrg1 CRD-mouse IgG2a-Fc fusion protein (Fc fusion)
chain: NGSHCYYFSMEKKDWNSSLKFCADKGSHLLTFPDNQGVKLFGEYLGQDFYWIGLRNIDGWRWEGGPALSLRILTNSLIQRCGAIHRNGLQASSCEVALQWICKGGGSGGGSGGGS
B10: Klrg2 CRD-mouse IgG2a-Fc fusion protein (Fc fusion)
chain: SQEQCYYLSEEAQDWEGSQAFCSAHHATLPLLSHTQDFLRKYRITKGSWVGARRGPEGWHWTDGVPLPYQLFPADSEDHPDFSCGGLEEGRLVALDCSSPRPWVCAGGGSGGGSGGGS
B11: Klri1 CRD-mouse IgG2a-Fc fusion protein (Fc fusion)
chain: FGNNFYCVFKENTKTWAESQSACEELNSHLVIIDSKAEVENLLLFEMDGWILHKMDGTNSSWLWRNDIKIQNTLTNDSEKKNHSCHYLRGNLFMPDECSAKKSYICEGGGSGGGSGGGS
B12: Klrk1 CRD-mouse IgG2a-Fc fusion protein (Fc fusion)
chain: HRNNCYQFFNEEKTWNQSQASCLSQNSSLLKIYSKEEQDFLKLVKSYHWMGLVQIPANGSWQWEDGSSLSYNQLTLVEIPKGSCAVYGSSFKAYTEDCANLNTYICMGGGSGGGSGGGS
B13: Layn CRD-mouse IgG2a-Fc fusion protein (Fc fusion)
chain: TRRPCYKVIYFHDAFQRLNFEEAKETCMEDGGQLVSIETEDEQRLIEKFIENLLASDGDFWIGLKRLEEKQSNNTACQDLYAWTDGSTSQFRNWYVDEPSCGSEVCVVMYHQPSAPPGIGGSYMFQWNDDRCNMKNNFICKGGGSGGGSGGGS
B14: Cd209b CRD-mouse IgG2a-Fc fusion protein (Fc fusion)
chain: FLLGNCYFFSKSQRNWNDAVTACKEVKAQLVIINSDEEQTFLQQTSKAKGPTWMGLSDLKKEATWLWVDGSTLSSRFQKYWNRGEPNNIGEEDCVEFAGDGWNDSKCELKKFWICKGGGSGGGSGGGS
B15: Lgalsl CRD-mouse IgG2a-Fc fusion protein (Fc fusion)
chain: PFCGHIKGGMRPGKKVLVMGIVDLNPESFAISLTCGDSEDPPADVAIELKAVFTDRQLLRNSCISGERGEEQSAIPYFPFIPDQPFRVEILCEHPRFRVFVDGHQLFDFYHRIQTLSAIDTIKINGDLQIGGGSGGGSGGGS
B16: Ly75_1 CRD-mouse IgG2a-Fc fusion protein (Fc fusion)
chain: QIGSCYQFNNQEILSWKEAYVSCQNQGADLLSIHSAAELAYITGKEDIARLVWLGLNQLYSARGWEWSDFRPLKFLNWDPGTPVAPVIGGSSCARMDTESGLWQSVSCESQQPYVCKGGGSGGGSGGGS
B17: Ly75_10 CRD-mouse IgG2a-Fc fusion protein (Fc fusion)
chain: YGGHCYASDQVLHSFSEAKQVCQELDHSATVVTIADENENKFVSRLMRENYNITMRVWLGLSQHSLDQSWSWLDGLDVTFVKWENKTKDGDGKCSILIASNETWRKVHCSRGYARAVCKIGGGSGGGSGGGS
B18: Ly75_2 CRD-mouse IgG2a-Fc fusion protein (Fc fusion)
chain: NNGFCYLLANESSSWDAAHLKCKAFGADLISMHSLADVEVVVTKLHNGDVKKEIWTGLKNTNSPALFQWSDGTEVTLTYWNENEPSVPFNKTPNCVSYLGKLGQWKVQSCEKKLRYVCKGGGSGGGSGGGS
B19: Ly75_3 CRD-mouse IgG2a-Fc fusion protein (Fc fusion)
chain: KDAESDKLCPPDEGWKRHGETCYKIYEKEAPFGTNCNLTITSRFEQEFLNYMMKNYDKSLRKYFWTGLRDPDSRGEYSWAVAQGVKQAVTFSNWNFLEPASPGGCVAMSTGKTLGKWEVKNCRSFRALSICKKGGGSGGGSGGGS
B20: Ly75_4 CRD-mouse IgG2a-Fc fusion protein (Fc fusion)
chain: SSLSCYKVFHIERIVRKRNWEEAERFCQALGAHLPSFSRREEIKDFVHLLKDQFSGQRWLWIGLNKRSPDLQGSWQWSDRTPVSAVMMEPEFQQDFDIRDCAAIKVLDVPWRRVWHLYEDKDYAYWKPFACDAKLEWVCQGGGSGGGSGGGS
B21: Ly75_5 CRD-mouse IgG2a-Fc fusion protein (Fc fusion)
chain: IEGSEYWFVADPHLNYEEAVLYCASNHSFLATITSFTGLKAIKNKLANISGEEQKWWVKTSENPIDRYFLGSRRRLWHHFPMTFGDECLHMSAKTWLVDLSKRADCNAKLPFICEGGGSGGGSGGGS
B22: Ncan CRD-mouse IgG2a-Fc fusion protein (Fc fusion)
chain: not shown
B23: Clec2g CRD-mouse IgG2a-Fc fusion protein (Fc fusion)
chain: VGNKCFYFSEYTSNWTFAQTFCMAQEAQLARFDNEKELNFLMRYKANFDSWIGLHRESSEHPWKWTDNTEYNNMIPIQGVETCAYLSGNGISSSRHYIPRIWICSGGGSGGGSGGGS
B24: Clec2h CRD-mouse IgG2a-Fc fusion protein (Fc fusion)
chain: FGSKCFYFSEDMGNWTFSQSSCVASNSHLALFHSLEELNFLKRYKGTSDHWIGLHRASTQHPWIWTDNTEYSNLVLTRGGGECGFLSDNGISSGRSYTHRKWICSGGGSGGGSGGGS
B25: Colec12 CRD-mouse IgG2a-Fc fusion protein (Fc fusion)
chain: FTDKCYYFSLEKEIFEDAKLFCEDKSSHLVFINSREEQQWIKKHTVGRESHWIGLTDSEQESEWKWLDGSPVDYKNWKAGQPDNWGSGHGPGEDCAGLIYAGQWNDFQCDEINNFICEGGGSGGGSGGGS
B26: Lgals6_2 CRD-mouse IgG2a-Fc fusion protein (Fc fusion)
chain: YVGALQGGFTVRRTIIIKGYVLPTAKTFAINFRVGSSEDIALHINPRIGDCLVRNSYMNGSWGTEERMVAYNPFGPGQFFDLSIRCGMDRFKVFANGIHLFNFSHRFQALRKINTLEINGDLTLSYVHIGGGSGGGSGGGS
B27: Lgals9_2 CRD-mouse IgG2a-Fc fusion protein (Fc fusion)
chain: FYTPIPNGLYPSKSIMISGNVLPDATRFHINLRCGGDIAFHLNPRFNENAVVRNTQINNSWGQEERSLLGRMPFSRGQSFSVWIICEGHCFKVAVNGQHMCEYYHRLKNLQDINTLEVAGDIQLTHVQTGGGSGGGSGGGS
B28: Siglec10 CRD-mouse IgG2a-Fc fusion protein (Fc fusion)
chain: VQRIVKAQEGLCIFVPCSFSSPEGKWLNRSPLYGYWFKGIRKPSLSFPVATNNKDKVLEWEARGRFQLLGDISKKNCSLLIKDVQWGDSTNYFFRMERGFERFSFKEEFRLQVGGGSGGGSGGGS
B29: Vcan CRD-mouse IgG2a-Fc fusion protein (Fc fusion)
chain: not shown

These binders were tested against T1, human recombinant soluble ACE2 (human, UniProt Q9BYF1 18-740) (assay: ELISA screen).
T1 construct: also called hrsACE2
T1 sequence (Q9BYF1 18-740 limits assumed): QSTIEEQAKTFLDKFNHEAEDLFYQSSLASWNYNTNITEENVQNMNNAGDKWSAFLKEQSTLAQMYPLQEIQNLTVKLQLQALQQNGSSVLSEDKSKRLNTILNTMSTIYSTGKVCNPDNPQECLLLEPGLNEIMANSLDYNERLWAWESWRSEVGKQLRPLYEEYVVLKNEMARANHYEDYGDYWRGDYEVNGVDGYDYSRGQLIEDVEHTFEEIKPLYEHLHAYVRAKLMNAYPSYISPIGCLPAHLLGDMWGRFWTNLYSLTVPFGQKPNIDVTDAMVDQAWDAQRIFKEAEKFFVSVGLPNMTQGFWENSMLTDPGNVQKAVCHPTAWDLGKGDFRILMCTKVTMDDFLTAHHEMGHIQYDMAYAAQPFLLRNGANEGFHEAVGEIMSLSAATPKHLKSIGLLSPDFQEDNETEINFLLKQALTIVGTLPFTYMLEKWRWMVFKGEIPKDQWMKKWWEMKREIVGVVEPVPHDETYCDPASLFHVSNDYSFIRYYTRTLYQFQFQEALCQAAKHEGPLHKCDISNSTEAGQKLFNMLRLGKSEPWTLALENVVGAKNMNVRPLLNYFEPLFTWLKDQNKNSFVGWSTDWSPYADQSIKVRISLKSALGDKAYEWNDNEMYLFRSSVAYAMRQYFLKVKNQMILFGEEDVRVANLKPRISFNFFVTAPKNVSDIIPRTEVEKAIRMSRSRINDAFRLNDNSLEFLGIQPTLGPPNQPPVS

Going from B1 to B2, the “Mean normalized OD” value rises from -0.249 OD to -0.003 OD.

Going from B3 to B4, the “Mean normalized OD” value falls from -0.005 OD to -0.032 OD.

Going from B5 to B6, the “Mean normalized OD” value falls from -0.001 OD to -0.538 OD.

Compared with B7, B8 is lower in “Mean normalized OD” value: -0.004 OD for the first, -0.006 OD for the second.

Compared with B9, B10 is higher in “Mean normalized OD” value: -0.843 OD for the first, -0.013 OD for the second.

B11 and B12 are the same in “Mean normalized OD” value: -0.003 OD for the first, -0.003 OD for the second.

First: B13
Second: B14
The “Mean normalized OD” value of the first is higher: -0.005 OD for the first, -0.094 OD for the second.

Compared with B15, B16 is lower in “Mean normalized OD” value: -0.004 OD for the first, -0.571 OD for the second.

Compared with B17, B18 is lower in “Mean normalized OD” value: -0.02 OD for the first, -0.135 OD for the second.

Going from B19 to B20, the “Mean normalized OD” value falls from -0.003 OD to -0.004 OD.

Going from B21 to B22, the “Mean normalized OD” value falls from -0.106 OD to -0.589 OD.

First: B23
Second: B24
The “Mean normalized OD” value of the first is lower: -0.722 OD for the first, -0.707 OD for the second.

The binders below were run against T2, full-length trimeric SARS-CoV-2 Spike protein (Spike-H6) (SARS-CoV-2, N-glycosylated (22 N-glycosylation sites)) (assay: ELISA screen).
T2 construct: also called trimeric Spike; full-length Spike-H6

First: B1
Second: B2
The “Mean normalized OD” value of the first is lower: -0.61 OD for the first, 0.001 OD for the second.

Going from B3 to B4, the “Mean normalized OD” value rises from 0 OD to 0.003 OD.

Going from B5 to B6, the “Mean normalized OD” value falls from 0 OD to -0.111 OD.

Compared with B25, B7 is lower in “Mean normalized OD” value: 0.04 OD for the first, 0.001 OD for the second.

Compared with B8, B9 is higher in “Mean normalized OD” value: -0.002 OD for the first, 0.003 OD for the second.

First: B10
Second: B11
The “Mean normalized OD” value of the first is lower: -0.044 OD for the first, 0.002 OD for the second.

Going from B12 to B13, the “Mean normalized OD” value rises from 0 OD to 0.002 OD.

Going from B26 to B27, the “Mean normalized OD” value falls from 0.135 OD to 0.056 OD.

First: B14
Second: B15
The “Mean normalized OD” value of the first is lower: -0.032 OD for the first, 0.006 OD for the second.

Compared with B16, B17 is higher in “Mean normalized OD” value: -0.434 OD for the first, -0.002 OD for the second.

Compared with B18, B19 is higher in “Mean normalized OD” value: -0.319 OD for the first, 0.002 OD for the second.

Compared with B20, B21 is lower in “Mean normalized OD” value: -0.014 OD for the first, -0.17 OD for the second.

Going from B22 to B28, the “Mean normalized OD” value rises from -0.09 OD to 0.046 OD.

Compared with B29, B23 is lower in “Mean normalized OD” value: 0.064 OD for the first, -0.241 OD for the second.

In the case of B24, the “Mean normalized OD” value is reported as -0.387 OD.

What follows are binders tested against T3, monomeric SARS-CoV-2 receptor binding domain (RBD-H6) (SARS-CoV-2, UniProt P0DTC2 319-541) (assay: ELISA screen).
T3 construct: Made in HEK293-6E cells; also called RBD Spike; monomeric RBD

Going from B2 to B3, the “Mean normalized OD” value falls from 0.001 OD to -0.001 OD.

First: B4
Second: B5
The “Mean normalized OD” value of the first is higher: 0.029 OD for the first, 0.004 OD for the second.

Going from B25 to B7, the “Mean normalized OD” value falls from 0.027 OD to 0.004 OD.

First: B8
Second: B9
The “Mean normalized OD” value of the first is higher: 0.045 OD for the first, 0.003 OD for the second.

Compared with B10, B11 is lower in “Mean normalized OD” value: 0.043 OD for the first, 0.001 OD for the second.

B12 and B13 are the same in “Mean normalized OD” value: 0 OD for the first, 0 OD for the second.

Going from B27 to B14, the “Mean normalized OD” value rises from 0.033 OD to 0.113 OD.

Going from B15 to B17, the “Mean normalized OD” value rises from 0.001 OD to 0.014 OD.

First: B19
Second: B20
The “Mean normalized OD” value of the first is lower: 0.001 OD for the first, 0.007 OD for the second.

First: B28
Second: B29
The “Mean normalized OD” value of the first is lower: 0.015 OD for the first, 0.052 OD for the second.
